Laboratory results reported in US20150064714A1, “Polypeptides containing a modified fragment of the peptide IF1” (LIFESEARCH, priority 2013, published 2015).
No end group written: not given here. *: point of attachment. MTSL = spin label, CC1(C)C=C(CS*)C(C)(C)N1[O]

Columns and labels:
[1] = system: F1-ATPase or SMP (F0F1-ATPase); test: Measurement of the affinity of a labelled polypeptide for the ATPase (kinetics of inhibition of ATP hydrolysis, NADH disappearance at 340 nm); assay type: biochemical; conditions: kinetic results; 25° C., pH 6.5; polypeptide 15 nM to 2 μM
Procedure: The hydrolysis of ATP by F1-ATPase or SMP (F0F1-ATPase) was measured according to the reaction illustrated below by following the disappearance of NADH over time at 340 nm.
This reaction is carried out in a thermostatically controlled vessel (25° C.) in which the reaction medium pH 6.5 (50 mM MES, 20 mM KCl, 1 mM MgCl2, 0.4 mM NADH, 1 mM PEP, 20 units/mL pyruvate kinase and 50 unit/mL lactate dehydrogenase) is stirred. In the case of measurement of hydrolysis of ATP by the SMPs, the vessel also contains 3 μM antimycin and 3 μM FCCP.
After recording for 2 to 4 minutes, a labelled polypeptide of the invention is injected into the measurement vessel at a concentration range of 15 nM to 2 μM and the ATPase activity decreases. The recordings are analysed and adjusted with a decreasing monoexponential function (equation 1 shown below) corresponding to the decline in the ATPase activity.
By plotting the values of kapp obtained as a function of the concentration of IF1, the formation rate constant (kon) and dissociation rate constant (koff) of the inhibited complex F1ATPase/IF1 are determined according to the following equation: kapp=kon[I]+koff
The relationship between the ratio V(I)/V(0) and the concentration of labelled polypeptide of the invention are linked according to the following equation:
V(I)/V(0)=Vr+(1−Vr)/(1+[I]/k1),
in which Vr is the fraction of V0 insensitive to IF1 inhibition.

ATPase = ATPase (Homo sapiens, UniProt P06576+P25705); conditions: fragment of IF1 of less than 34 amino acids in a fusion protein; cited from earlier work
F1-ATPase = F1-ATPase (Bos taurus, UniProt P00829+P19483); conditions: point mutations of bovine IF1; cited from earlier work

SEQ ID NO: 25: cysteine-containing peptide: cysteine inserted into the median region of SEQ ID NO: 9, for labelling with the spin label MTSL (SEDSFVKRARATEDWFVRQREKEC(MTSL)QLRHLKEQLEKQRKK)
affinity for ATP synthase compared to that of natural IF1 [1]: better affinity for ATP synthase

fragment constituted by amino acid 14 to amino acid 46 of IF1: fragment of the protein IF1 in a fusion protein of US 2004/0072739 (AVRDAGGAFGKREQAEEERYFRARAKEQLAALK; UniProt P01096 39-71, looked up, fragment)
ATPase inhibiting activity (ATPase): better ATPase inhibiting activity

B1: Y33W: modified bovine IF1 containing the point mutation Y33W (Bason et al.) (protein, UniProt P01096 26-109, looked up, variant Y33W)
ATPase inhibitor, …: GSESGDNVRSSAGAVRDAGGAFGKREQAEEERWFRARAKEQLAALKKHHENEISHHAKEIERLQKEIERHKQSIKKLKQSEDDD
affinity for F1-ATPase compared to the natural bovine IF1 (F1-ATPase): better affinity
